Consider one substance from PMC3437550.

The target of the assay is Torpedo californica nicotinic acetylcholine receptor (Torpedo californica) (UniProt P02710). Kind of assay: SEC.

On to “Torpedo californica nicotinic acetylcholine receptor (from UniProt P02710 25-461; P02712 25-493; P02714 18-506; P02718 22-522) (complex)”, for which the percent dimer stood at 72.7%.
